Measurements taken from patent publication US20220267421A1 (INVOX PHARMA, published 2022).

T1: human E-Cadherin (R&D systems, 8505-EC) (human, UniProt P12830 155-707)
T1 sequence (looked up): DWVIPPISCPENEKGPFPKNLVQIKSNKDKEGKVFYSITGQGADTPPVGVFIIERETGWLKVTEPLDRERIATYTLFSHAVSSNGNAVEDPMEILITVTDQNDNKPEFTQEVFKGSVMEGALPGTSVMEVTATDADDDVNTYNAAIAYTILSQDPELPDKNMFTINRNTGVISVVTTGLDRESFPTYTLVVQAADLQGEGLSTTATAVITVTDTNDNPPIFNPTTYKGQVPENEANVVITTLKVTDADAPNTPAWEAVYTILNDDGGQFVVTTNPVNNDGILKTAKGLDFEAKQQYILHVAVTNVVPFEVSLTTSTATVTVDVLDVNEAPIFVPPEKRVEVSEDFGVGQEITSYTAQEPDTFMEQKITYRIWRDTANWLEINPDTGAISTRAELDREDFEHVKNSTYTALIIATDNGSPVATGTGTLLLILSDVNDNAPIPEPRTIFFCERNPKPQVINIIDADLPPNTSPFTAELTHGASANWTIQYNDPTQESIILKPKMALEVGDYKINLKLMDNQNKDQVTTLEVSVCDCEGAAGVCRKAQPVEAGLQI

T2: human CEACAM-5-His-Fc (Sino Biological, 1077-H03H) (human, UniProt P06731 35-685)
T2 construct: not shown: His tag and Fc
T2 sequence (looked up): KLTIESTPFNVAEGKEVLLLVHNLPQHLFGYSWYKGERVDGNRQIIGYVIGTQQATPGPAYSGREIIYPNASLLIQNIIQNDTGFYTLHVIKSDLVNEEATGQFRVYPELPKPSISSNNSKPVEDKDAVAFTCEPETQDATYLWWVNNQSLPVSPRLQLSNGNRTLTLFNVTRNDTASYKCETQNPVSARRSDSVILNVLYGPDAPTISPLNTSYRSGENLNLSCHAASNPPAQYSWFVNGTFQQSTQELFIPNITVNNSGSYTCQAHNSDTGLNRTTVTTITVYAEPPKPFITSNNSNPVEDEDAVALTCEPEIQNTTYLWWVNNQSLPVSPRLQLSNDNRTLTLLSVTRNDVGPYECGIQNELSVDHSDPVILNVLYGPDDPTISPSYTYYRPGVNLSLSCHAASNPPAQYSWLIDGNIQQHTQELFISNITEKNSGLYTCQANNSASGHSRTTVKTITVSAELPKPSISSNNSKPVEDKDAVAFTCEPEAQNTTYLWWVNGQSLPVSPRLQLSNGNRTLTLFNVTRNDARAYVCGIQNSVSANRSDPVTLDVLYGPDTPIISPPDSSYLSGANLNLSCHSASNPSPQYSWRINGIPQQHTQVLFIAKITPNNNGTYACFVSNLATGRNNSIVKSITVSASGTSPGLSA

T3: human EpCAM-hFc (in-house production) (human, UniProt P16422 24-265, limits assumed)
T3 construct: not shown: human Fc
T3 sequence (looked up): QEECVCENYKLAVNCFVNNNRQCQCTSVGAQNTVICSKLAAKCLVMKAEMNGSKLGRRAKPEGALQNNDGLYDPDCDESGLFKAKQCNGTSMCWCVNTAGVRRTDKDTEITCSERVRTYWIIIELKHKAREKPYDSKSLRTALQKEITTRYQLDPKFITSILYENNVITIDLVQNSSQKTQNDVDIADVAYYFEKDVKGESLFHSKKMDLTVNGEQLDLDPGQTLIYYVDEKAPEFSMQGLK


Tests used:
[1] = molecular target: T4, cell surface human mesothelin (MSLN) (human, UniProt Q13421 296-598); assay: flow cytometry, NCI-H226 cells (n = 3)
T4 construct: whole, on cells; also called cell surface MSLN
Experimental: Briefly, NCI-H226 cells (ATCC CRL-5826) were harvested from T175 cell culture flasks using StemPro Accutase (Gibco, A11105-01). Cells were centrifuged at 1200 rpm for 3 min and resuspended in ice cold FACS buffer made up of DPBS (Life Technologies, 14190169) and 1% BSA (Sigma-Aldrich, A7906) at 2×10⁶ cells/ml and 50 μl per well was seeded in a 96-well V-bottom plate (Costar, 3894). All mAbs tested were diluted in FACS buffer in 120 μl at a concentration range of 0.01-200 nM (4-fold dilutions). The NCI-H226 cells were then centrifuged, supernatant removed and cells resuspended in 100 μl of each mAb dilution and incubated at 4° C. for 45 min. Cells were washed twice by centrifugation with 150 μl FACS buffer, resuspended in 100 μl containing goat anti-human IgG (γ-chain specific) F(ab′)2 fragment-R-Phycoerythrin antibody (Sigma, P8047) diluted 1:1000 in FACS buffer and incubated at 4° C. for 45 min. The cells were washed once with 150 μl FACS buffer and then with 150 μl DPBS, resuspended in 150 μl DPBS containing DAPI (Biotium, 40043) at 1:10.000 and read on the BDCantoll or iQue (Intellicyt). Data was analysed using FlowJo v10 to determine the signal geometric mean for PE for live cells in each well.

[2] = molecular target: T1, human E-Cadherin (R&D systems, 8505-EC); assay: ELISA, antigen coated at 1 ug/ml
Experimental: (§1) A similar protocol was used as described in section 1.2.1 in which maxisorp plates were coated with 1 μg/ml of recombinant human MSLN-His-Avi, human CEACAM-5-His-Fc (Sino Biological, 1077-H03H), human E-Cadherin (R&D systems, 8505-EC), human Thrombomodulin (Peprotech, 100-58) or human EpCAM-hFc (in-house production). Binding of the anti-MSLN mAbs, tested at a concentration range of 0.02 to 1000 nM (3-fold dilutions) was detected using anti-human Fab-HRP (Sigma, A0293). Positive controls for the respective molecules included human EpCAM antibody (clone 2G8 from patent no. U.S. Pat. No. 8,236,308 B2) CEACAM-5 antibody (clone hMN15 from patent no. U.S. Pat. No. 8,771,690 B2), human E-Cadherin antibody, mouse IgG2b clone 180215 (R&D systems, MAB1838), human Thrombomodulin antibody, mouse IgG1, clone 501733 (R&D systems, MAB3947). The latter two were detected using goat anti mouse Fc-HRP (Sigma, A9309) as secondary mAb.

[3] = molecular target: T2, human CEACAM-5-His-Fc (Sino Biological, …); assay: ELISA, antigen coated at 1 ug/ml
Experimental: as §1

[4] = molecular target: T3, human EpCAM-hFc (in-house production); assay: ELISA, antigen coated at 1 ug/ml
Experimental: as §1

T4 sequence (Q13421 other isoform, or with tags, fused parts or gaps limits assumed): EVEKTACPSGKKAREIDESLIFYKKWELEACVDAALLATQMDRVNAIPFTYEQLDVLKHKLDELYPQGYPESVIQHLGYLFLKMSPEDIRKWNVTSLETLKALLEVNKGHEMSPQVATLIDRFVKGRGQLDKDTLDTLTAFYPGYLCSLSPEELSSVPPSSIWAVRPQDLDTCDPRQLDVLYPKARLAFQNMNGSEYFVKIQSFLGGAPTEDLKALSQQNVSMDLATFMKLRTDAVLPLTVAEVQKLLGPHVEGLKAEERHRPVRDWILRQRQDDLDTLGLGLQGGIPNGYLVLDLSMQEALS

| EC50 [1] | Emax (MFI signal) [1] | binding result [2] | binding result [3] | binding result [4] | Binder |
| --- | --- | --- | --- | --- | --- |
| 0.62 nM | 14600 MFI | no binding (tested: 1000 nM) | no binding (tested: 1000 nM) | no binding (tested: 1000 nM) | G1-AA/FS28-024 (antibody, human IgG1, kappa, L234A L235A, V domains shown, Complete human IgG1 with LALA mutation; also called FS28-024 mAb (in G1-AA format)) VH: EVQLLESGGGLVQPGGSLRLSCAASGFTLSYSSMSWVRQAPGKGLEWVSFITPSTGYTHYADSVKGRFTISRDNSKNTLYLQMNSLRAEDTAVYYCARRALTFDYWGQGTLVTVSS VL: EIVLTQSPGTLSLSPGERATLSCRASQSVSSSYLAWYQQKPGQAPRLLIYGASSRATGIPDRFSGSGSGTDFTLTISRLEPEDFAVYYCQQASSYPLTFGQGTKVEIKR |
| 1.08 nM | 13600 MFI | no binding (tested: 1000 nM) | no binding (tested: 1000 nM) | no binding (tested: 1000 nM) | G1-AA/FS28-026 (antibody, human IgG1, kappa, L234A L235A, V domains shown, IgG1 LALA; also called FS28-026 mAb (in G1-AA format)) VH: EVQLLESGGGLVQPGGSLRLSCAASGFTFSNYAMTWVRQAPGKGLEWVSSITPYYSKTDYADSVKGRFTISRDNSKNTLYLQMNSLRAEDTAVYYCARNWYRFDYWGQGTLVTVSS VL: not shown |
| 1.22 nM | 11900 MFI | no binding (tested: 1000 nM) | no binding (tested: 1000 nM) | no binding (tested: 1000 nM) | G1-AA/FS28-091 (antibody, human IgG1, kappa, L234A L235A, V domains shown, IgG1 LALA; also called FS28-091 mAb (in G1-AA format)) VH: EVQLLESGGGLVQPGGSLRLSCAASGFTFTNYAMSWVRQAPGKGLEWVSSIKPYDGNTYYADSVKGRFTISRDNSKNTLYLQMNSLRAEDTAVYYCARNRWVFDYWGQGTLVTVSS VL: not shown |
